According to publication PMC8397269 (Science Advances, 2021):

T1: His-lamin B1, full length (human, UniProt P20700 1-586)
T1 sequence (looked up): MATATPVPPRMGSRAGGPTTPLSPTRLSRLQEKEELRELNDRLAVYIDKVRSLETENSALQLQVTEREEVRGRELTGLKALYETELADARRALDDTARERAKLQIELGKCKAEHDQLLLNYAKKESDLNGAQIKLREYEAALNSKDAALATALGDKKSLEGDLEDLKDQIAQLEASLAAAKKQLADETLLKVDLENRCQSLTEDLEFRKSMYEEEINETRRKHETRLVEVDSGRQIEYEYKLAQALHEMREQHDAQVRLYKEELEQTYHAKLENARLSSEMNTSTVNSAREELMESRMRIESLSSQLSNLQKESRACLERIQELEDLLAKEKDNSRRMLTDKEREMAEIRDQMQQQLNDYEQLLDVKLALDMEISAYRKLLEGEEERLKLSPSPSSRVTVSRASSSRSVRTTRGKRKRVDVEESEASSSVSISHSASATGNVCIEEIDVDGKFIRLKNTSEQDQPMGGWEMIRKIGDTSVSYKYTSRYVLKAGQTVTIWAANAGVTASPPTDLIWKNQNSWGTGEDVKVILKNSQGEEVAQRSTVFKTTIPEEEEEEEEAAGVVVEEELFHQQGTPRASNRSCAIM


Experiments:
[1] = biological target: His-IRIF 53BP1 (human, UniProt Q12888 1222-1659); assay: pull-down
[2] = biological target: T1, His-lamin B1, full length; assay: pull-down

| binding result [1] | binding result [2] | Binder |
| --- | --- | --- |
| binds |  | GST-Nterm lamin B1 (domain or fragment, human, UniProt P20700 1-424, looked up) MATATPVPPRMGSRAGGPTTPLSPTRLSRLQEKEELRELNDRLAVYIDKVRSLETENSALQLQVTEREEVRGRELTGLKALYETELADARRALDDTARERAKLQIELGKCKAEHDQLLLNYAKKESDLNGAQIKLREYEAALNSKDAALATALGDKKSLEGDLEDLKDQIAQLEASLAAAKKQLADETLLKVDLENRCQSLTEDLEFRKSMYEEEINETRRKHETRLVEVDSGRQIEYEYKLAQALHEMREQHDAQVRLYKEELEQTYHAKLENARLSSEMNTSTVNSAREELMESRMRIESLSSQLSNLQKESRACLERIQELEDLLAKEKDNSRRMLTDKEREMAEIRDQMQQQLNDYEQLLDVKLALDMEISAYRKLLEGEEERLKLSPSPSSRVTVSRASSSRSVRTTRGKRKRVDVEES |
|  | binds | GST-53BP1 IRIF (domain or fragment, human, UniProt Q12888 1222-1659, looked up) EEEFDMPQPPHGHVLHRHMRTIREVRTLVTRVITDVYYVDGTEVERKVTEETEEPIVECQECETEVSPSQTGGSSGDLGDISSFSSKASSLHRTSSGTSLSAMHSSGSSGKGAGPLRGKTSGTEPADFALPSSRGGPGKLSPRKGVSQTGTPVCEEDGDAGLGIRQGGKAPVTPRGRGRRGRPPSRTTGTRETAVPGPLGIEDISPNLSPDDKSFSRVVPRVPDSTRRTDVGAGALRRSDSPEIPFQAAAGPSDGLDASSPGNSFVGLRVVAKWSSNGYFYSGKITRDVGAGKYKLLFDDGYECDVLGKDILLCDPIPLDTEVTALSEDEYFSAGVVKGHRKESGELYYSIEKEGQRKWYKRMAVILSLEQGNRLREQYGLGPYEAVTPLTKAADISLDNLVEGKRKRRSNVSSPATPTASSSSSTTPTRKITESPRA |
| binds |  | GST-Head-Coil1 lamin B1 (domain or fragment, human, UniProt P20700 1-243, looked up) MATATPVPPRMGSRAGGPTTPLSPTRLSRLQEKEELRELNDRLAVYIDKVRSLETENSALQLQVTEREEVRGRELTGLKALYETELADARRALDDTARERAKLQIELGKCKAEHDQLLLNYAKKESDLNGAQIKLREYEAALNSKDAALATALGDKKSLEGDLEDLKDQIAQLEASLAAAKKQLADETLLKVDLENRCQSLTEDLEFRKSMYEEEINETRRKHETRLVEVDSGRQIEYEYKLA |
